These results are taken from publication PMC2974754 (The Plant journal : for cell and molecular biology, 2010).

One assay concerns Arabidopsis plants. The settings on record: synthetic peptides treating Arabidopsis plants; ref Kinoshita et al. 2007; cited from earlier work.
Assay [1] concerns CLV1. The settings on record: truncated CLV1 LRR domain expressed in tobacco BY-2 cells; ref Ogawa et al. 2008; cited from earlier work.
The target in assay [2] is CLV2-MYC (transient expression in N. benthamiana) (Arabidopsis thaliana) (UniProt O80809). The experiment in a line: radioligand binding.
The target of assay [3] is BAM2-GFP (transient expression in N. benthamiana) (Arabidopsis thaliana) (UniProt Q9M2Z1). Briefly: radioligand binding.
For assay [4], the target named is CLV1-GFP (transient expression in N. benthamiana) (Arabidopsis thaliana) (UniProt Q9SYQ8). The experiment in a line: radioligand binding.
In assay [5] the target is BAM1-GFP (transient expression in N. benthamiana) (Arabidopsis thaliana) (UniProt O49545). Briefly: radioligand binding.
Chain of BAM1-GFP (transient expression in N. benthamiana) (Arabidopsis thaliana) (O49545 20-1003): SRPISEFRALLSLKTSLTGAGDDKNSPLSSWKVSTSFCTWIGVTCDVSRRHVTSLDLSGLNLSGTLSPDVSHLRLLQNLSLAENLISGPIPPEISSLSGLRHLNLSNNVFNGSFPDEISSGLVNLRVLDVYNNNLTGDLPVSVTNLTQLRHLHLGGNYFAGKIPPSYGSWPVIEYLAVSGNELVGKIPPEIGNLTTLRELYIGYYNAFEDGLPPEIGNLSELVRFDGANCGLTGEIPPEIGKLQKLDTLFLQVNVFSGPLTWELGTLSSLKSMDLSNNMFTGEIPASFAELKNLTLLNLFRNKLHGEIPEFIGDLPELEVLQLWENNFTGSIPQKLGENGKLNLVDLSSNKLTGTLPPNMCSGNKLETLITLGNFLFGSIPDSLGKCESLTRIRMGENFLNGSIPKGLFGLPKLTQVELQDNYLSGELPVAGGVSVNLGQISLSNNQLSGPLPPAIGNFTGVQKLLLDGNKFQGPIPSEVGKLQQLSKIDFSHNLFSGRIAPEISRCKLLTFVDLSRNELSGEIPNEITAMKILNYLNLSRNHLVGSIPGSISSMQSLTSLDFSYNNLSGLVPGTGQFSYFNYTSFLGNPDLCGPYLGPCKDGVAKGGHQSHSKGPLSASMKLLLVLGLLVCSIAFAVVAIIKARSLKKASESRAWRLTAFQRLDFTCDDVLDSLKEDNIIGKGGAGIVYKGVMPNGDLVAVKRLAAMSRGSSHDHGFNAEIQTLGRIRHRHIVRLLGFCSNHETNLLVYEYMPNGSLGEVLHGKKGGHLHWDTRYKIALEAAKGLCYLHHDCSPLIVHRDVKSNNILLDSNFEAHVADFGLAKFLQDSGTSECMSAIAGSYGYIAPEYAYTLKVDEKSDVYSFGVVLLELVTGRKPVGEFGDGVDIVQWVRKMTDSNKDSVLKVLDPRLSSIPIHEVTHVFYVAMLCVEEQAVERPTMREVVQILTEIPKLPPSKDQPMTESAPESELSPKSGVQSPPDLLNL
For assay [6] the following is noted: stated in peptide description, no test or reference named; cited from earlier work.
The subject of assay [7] is CLV1. The settings on record: cold competitor to radiolabeled CLV3 CLE; ref Kondo et al. 2008, Ogawa et al. 2008; cited from earlier work.
Assay [8] concerns the target T1, CLV1-FLAG (transient expression in N. benthamiana) (Arabidopsis thaliana, UniProt Q9SYQ8 25-980).
T1 sequence (looked up): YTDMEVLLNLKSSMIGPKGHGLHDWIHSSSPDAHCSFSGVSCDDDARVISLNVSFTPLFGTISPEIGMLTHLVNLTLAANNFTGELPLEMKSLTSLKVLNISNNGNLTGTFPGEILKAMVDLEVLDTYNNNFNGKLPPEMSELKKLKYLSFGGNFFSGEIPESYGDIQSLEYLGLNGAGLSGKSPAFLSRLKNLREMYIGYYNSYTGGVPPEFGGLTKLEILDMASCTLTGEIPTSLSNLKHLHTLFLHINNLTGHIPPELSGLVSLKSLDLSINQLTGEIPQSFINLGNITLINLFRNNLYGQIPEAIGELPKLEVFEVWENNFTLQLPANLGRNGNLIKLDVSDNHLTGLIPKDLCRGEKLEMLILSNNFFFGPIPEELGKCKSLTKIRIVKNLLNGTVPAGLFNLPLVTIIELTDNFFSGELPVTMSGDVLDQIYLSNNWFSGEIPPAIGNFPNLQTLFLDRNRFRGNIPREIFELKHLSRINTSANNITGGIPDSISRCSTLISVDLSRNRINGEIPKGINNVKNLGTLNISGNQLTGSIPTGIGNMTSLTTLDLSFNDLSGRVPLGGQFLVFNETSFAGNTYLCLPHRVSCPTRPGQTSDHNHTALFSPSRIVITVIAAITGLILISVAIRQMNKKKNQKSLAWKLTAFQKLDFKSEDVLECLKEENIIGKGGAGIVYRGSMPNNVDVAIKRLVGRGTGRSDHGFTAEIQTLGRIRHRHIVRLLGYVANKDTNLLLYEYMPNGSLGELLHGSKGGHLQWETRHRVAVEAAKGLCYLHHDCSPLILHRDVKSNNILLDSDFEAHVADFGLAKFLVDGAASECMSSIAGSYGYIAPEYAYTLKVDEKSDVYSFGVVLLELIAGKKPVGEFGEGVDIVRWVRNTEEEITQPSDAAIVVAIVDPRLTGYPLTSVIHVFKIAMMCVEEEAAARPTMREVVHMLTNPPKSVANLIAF
The experiment in a line: co-IP.

For assay [9], the target named is T2, CRN-GFP (transient expression in N. benthamiana) (Arabidopsis thaliana, UniProt Q9LYU7 34-401).
T2 sequence (looked up): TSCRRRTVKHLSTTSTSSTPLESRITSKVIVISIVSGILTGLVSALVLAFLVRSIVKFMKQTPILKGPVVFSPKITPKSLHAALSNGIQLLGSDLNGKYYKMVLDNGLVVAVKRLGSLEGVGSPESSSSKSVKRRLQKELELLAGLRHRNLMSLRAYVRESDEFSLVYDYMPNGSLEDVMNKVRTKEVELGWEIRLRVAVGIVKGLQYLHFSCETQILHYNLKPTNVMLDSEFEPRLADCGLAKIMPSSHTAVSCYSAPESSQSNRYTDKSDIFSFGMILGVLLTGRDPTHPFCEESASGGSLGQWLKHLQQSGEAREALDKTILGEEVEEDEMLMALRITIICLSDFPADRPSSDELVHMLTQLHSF
The experiment in a line: co-IP.

Assay [10] concerns the target T3, CLV1-GFP (transient expression in N. benthamiana) (Arabidopsis thaliana, UniProt Q9SYQ8 25-980).
T3 sequence (looked up): T1 sequence (looked up)
Briefly: co-IP.

“Also recorded” adds a separate entry of the source. Residues, ends and D or L forms follow the SMILES beside them. No end group written: not given here.

Consider “CLE25: CLE peptide (RKVPNGPDPIHN; ends and bridges not checked; UniProt Q8LFL4 58-69, looked up)”, for which, in the assay on Arabidopsis plants, the “effect on size of the SAM” value was “caused reduced size of the SAM”.
As to `CC(C)C[C@H](NC(=O)[C@@H]1CCCN1C(=O)[C@H](CC(=O)O)NC(=O)[C@@H]1CCCN1C(=O)CNC(=O)[C@H](CO)NC(=O)[C@@H]1CCCN1C(=O)[C@@H](NC(=O)[C@@H](NC(=O)[C@@H](N)CCCNC(=N)N)[C@@H](C)O)C(C)C)C(=O)N[C@@H](Cc1c[nH]cn1)C(=O)N[C@@H](Cc1c[nH]cn1)C(=O)O` [CLV3 CLE] (H-RTVPSGPDPLHH-OH), in the assay with CLV1 [1], the “binding to CLV1 (LRR / extracellular domain)” value was “bind to the truncated CLV1 LRR domain; also recorded: binds to the CLV3 CLE peptide through its extracellular domain”.
125I-radiolabeled CLV3 CLE peptide: the Kd in [2] was 32 nM; in assay [3] it was 36 nM; in assay [4] it was 30 nM; in assay [5], 26 nM.
Turning to “CLV3S: CLV3S (Thr71-His81) which only contains a portion of the CLE domain and is nonfunctional (TVPSGPDPLHH; ends and bridges not checked)”, the “functionality of the peptide” value in [6] was “nonfunctional”. The “competition of CLV3S at CLV1, previously reported” value in the assay with CLV1 [7] is “unable to compete”.
With “CLV3L: CLV3L (Arg70-Pro96) which includes the full CLV3 CLE domain plus the extended C-terminal tail and is partially functional (RTVPSGPDPLHHHVNPPRQPRNNFQLP; ends and bridges not checked; UniProt Q9XF04 70-96, looked up, fragment)”, the “functionality of the peptide” value in assay [6] is listed as “partially functional”.

B1: CLV2-MYC (transient expression in N. benthamiana) (receptor, Arabidopsis thaliana, UniProt O80809 26-720, looked up)
chain: QLPDLDPQDKASLLIFRVSIHDLNRSLSTWYGSSCSNWTGLACQNPTGKVLSLTLSGLNLSSQIHPSLCKLSSLQSLDLSHNNFSGNIPSCFGSLRNLRTLNLSRNRFVGSIPATFVSLKELREVVLSENRDLGGVVPHWFGNFSMNLERVDFSFCSFVGELPESLLYLKSLKYLNLESNNMTGTLRDFQQPLVVLNLASNQFSGTLPCFYASRPSLSILNIAENSLVGGLPSCLGSLKELSHLNLSFNGFNYEISPRLMFSEKLVMLDLSHNGFSGRLPSRISETTEKLGLVLLDLSHNSFSGDIPLRITELKSLQALRLSHNLLTGDIPARIGNLTYLQVIDLSHNALTGSIPLNIVGCFQLLALMISNNNLSGEIQPELDALDSLKILDISNNHISGEIPLTLAGLKSLEIVDISSNNLSGNLNEAITKWSNLKYLSLARNKFSGTLPSWLFKFDKIQMIDYSSNRFSWFIPDDNLNSTRFKDFQTGGGEGFAEPPGKVEIKISAAVVAKDELSFSYNLLSMVGIDLSDNLLHGEIPEALFRQKNIEYLNLSYNFLEGQLPRLEKLPRLKALDLSHNSLSGQVIGNISAPPGLTLLNLSHNCFSGIITEKEGLGKFPGALAGNPELCVETPGSKCDPANIDASQEEIYQNELVEGPISIWIFCLSAFISFDFGVLGIFCSARARSYILQTKA
B1: the values for the percent co-immunoprecipitated in assay [8] and in assay [9] were 2.5% and ~20%, respectively.

B2: BAM2-FLAG (transient expression in N. benthamiana) (receptor, Arabidopsis thaliana, UniProt Q9M2Z1 23-1002, looked up)
chain: KPITELHALLSLKSSFTIDEHSPLLTSWNLSTTFCSWTGVTCDVSLRHVTSLDLSGLNLSGTLSSDVAHLPLLQNLSLAANQISGPIPPQISNLYELRHLNLSNNVFNGSFPDELSSGLVNLRVLDLYNNNLTGDLPVSLTNLTQLRHLHLGGNYFSGKIPATYGTWPVLEYLAVSGNELTGKIPPEIGNLTTLRELYIGYYNAFENGLPPEIGNLSELVRFDAANCGLTGEIPPEIGKLQKLDTLFLQVNAFTGTITQELGLISSLKSMDLSNNMFTGEIPTSFSQLKNLTLLNLFRNKLYGAIPEFIGEMPELEVLQLWENNFTGSIPQKLGENGRLVILDLSSNKLTGTLPPNMCSGNRLMTLITLGNFLFGSIPDSLGKCESLTRIRMGENFLNGSIPKELFGLPKLSQVELQDNYLTGELPISGGGVSGDLGQISLSNNQLSGSLPAAIGNLSGVQKLLLDGNKFSGSIPPEIGRLQQLSKLDFSHNLFSGRIAPEISRCKLLTFVDLSRNELSGDIPNELTGMKILNYLNLSRNHLVGSIPVTIASMQSLTSVDFSYNNLSGLVPSTGQFSYFNYTSFVGNSHLCGPYLGPCGKGTHQSHVKPLSATTKLLLVLGLLFCSMVFAIVAIIKARSLRNASEAKAWRLTAFQRLDFTCDDVLDSLKEDNIIGKGGAGIVYKGTMPKGDLVAVKRLATMSHGSSHDHGFNAEIQTLGRIRHRHIVRLLGFCSNHETNLLVYEYMPNGSLGEVLHGKKGGHLHWNTRYKIALEAAKGLCYLHHDCSPLIVHRDVKSNNILLDSNFEAHVADFGLAKFLQDSGTSECMSAIAGSYGYIAPEYAYTLKVDEKSDVYSFGVVLLELITGKKPVGEFGDGVDIVQWVRSMTDSNKDCVLKVIDLRLSSVPVHEVTHVFYVALLCVEEQAVERPTMREVVQILTEIPKIPLSKQQAAESDVTEKAPAINESSPDSGSPPDLLSN
In assay [10], B2 had a percent co-immunoprecipitated of 10%.

The Kd is the constant that tells how readily two partners part at equilibrium.
